Target: polysialate O-acetyltransferase NeuO, protein variant with four N-terminal RLKTQDS heptads (Escherichia coli K1 (prophage CUS-3))
Test: crystal structure; apo-enzyme, space group P2_1, three monomers in the asymmetric unit, 1.7 Å; sitting drop at 20°C, 0.1 M Tris pH 7.2, 0.45 M glycine, 0.2 M NH4NO3, 7% PEG4000

Substance: polysialate O-acetyltransferase NeuO, protein variant with four N-terminal RLKTQDS heptads (enzyme)
- stoichiometry N: 3
